# Reference: patent US20180155451A1 (published 2018)
# T1: FcγRIIa R (human, UniProt P12318 34-217)
# T1 construct: extracellular domain; also called FcgRIIa R type; 2aR
# T1 sequence (looked up): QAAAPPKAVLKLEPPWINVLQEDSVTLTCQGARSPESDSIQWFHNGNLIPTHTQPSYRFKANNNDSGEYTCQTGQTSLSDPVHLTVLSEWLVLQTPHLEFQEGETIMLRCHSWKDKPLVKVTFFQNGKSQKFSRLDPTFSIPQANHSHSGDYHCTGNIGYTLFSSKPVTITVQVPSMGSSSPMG
# T2: FcγRIIb (human, UniProt P31994 43-217)
# T2 construct: extracellular domain; also called FcgRIIb; 2b
# T2 sequence (looked up): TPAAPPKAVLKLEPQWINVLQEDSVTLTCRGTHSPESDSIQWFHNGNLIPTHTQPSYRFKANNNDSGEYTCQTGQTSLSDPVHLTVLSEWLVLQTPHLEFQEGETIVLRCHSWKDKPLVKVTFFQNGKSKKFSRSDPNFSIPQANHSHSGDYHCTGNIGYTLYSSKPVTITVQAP
# Experiments:
# [1] = molecular target: T1, FcγRIIa R; assay: SPR; He/Con_2aR divided by He/Con_2b (FcγRIIb as reference)
# Method: (§1) The heterodimerized antibodies He Abs in which one of the H chains was introduced with an alteration were assayed for their binding activities to each activating FcγR and inhibitory FcγR according to the method described in Example 4. […] The activating FcγRs in FIGS. 26, 27, 28, and 29 are FcγRIa, FcγRIIa (R), FcγRIIa (H), and FcγRIIIa, respectively.
# (§2) Analysis of interaction between objective antibody and the FcγR was carried out using Biacore T100 (GE Healthcare). HBS-EP+ (GE Healthcare) was used as the running buffer, and the measurement temperature was set to 25° C. Chips produced by immobilizing the antigen peptide by the amine coupling method to a Series S Sencor Chip CM5 (GE Healthcare), or alternatively, chips produced by allowing preliminarily biotinylated antigen peptides to interact with and immobilize onto a Series S Sensor Chip SA (certified) (GE Healthcare) were used. Antibodies of interest were captured onto an antigen peptide-immobilized chip, and allowed to interact to each FcγR diluted with running buffer. To regenerate and repeatedly use the chip, the antibodies captured on the chip were washed off by reacting 10 mM glycine-HCl, pH 1.5.
# [2] = molecular target: T1, FcγRIIa R; assay: SPR (Biacore), antibody captured, FcγR as analyte; relative binding
# Method: as §1, §2
# [3] = molecular target: T2, FcγRIIb; assay: as above
# Method: as §1, §2
Binder,IIaR/IIb (He_2aR/2b) [1],He/Con_2aR (IIaR binding) [2],He/Con_2b (IIb binding) [3]
"GpH7-A5/GpH7-B3 variant E269_13S/GpL16-k0 (antibody, human IgG1, kappa, heterodimerized antibody, mutation in the GpH7-B3 chain only; also called He Ab) heavy 1: not shown heavy 2: not shown light: DIVMTQSPLSLPVTPGEPASISCQASESLVHSNRNTYLHWYLQKPGQSPQLLIYKVSNRFSGVPDRFSGSGSGTDFTLKISRVEAEDVGVYYCSQNTHVPPTFGQGTKVEIERTVAAPSVFIFPPSDEQLKSGTASVVCLLNNFYPREAKVQWKVDNALQSGNSQESVTEQDSKDSTYSLSSTLTLSKADYEKHKVYACEVTHQGLSSPVTKSFNRGEC",1.28 ratio,61.2 % of GpH7-A5/GpH7-B3/GpL16-k0 (=100),47.8 % of GpH7-A5/GpH7-B3/GpL16-k0 (=100)
"GpH7-A5/GpH7-B3 variant E269_08L/GpL16-k0 (antibody, human IgG1, kappa, heterodimerized antibody, mutation in the GpH7-B3 chain only; also called He Ab) heavy 1: not shown heavy 2: not shown light: DIVMTQSPLSLPVTPGEPASISCQASESLVHSNRNTYLHWYLQKPGQSPQLLIYKVSNRFSGVPDRFSGSGSGTDFTLKISRVEAEDVGVYYCSQNTHVPPTFGQGTKVEIERTVAAPSVFIFPPSDEQLKSGTASVVCLLNNFYPREAKVQWKVDNALQSGNSQESVTEQDSKDSTYSLSSTLTLSKADYEKHKVYACEVTHQGLSSPVTKSFNRGEC",1.33 ratio,57.2 % of GpH7-A5/GpH7-B3/GpL16-k0 (=100),42.9 % of GpH7-A5/GpH7-B3/GpL16-k0 (=100)
"GpH7-A5/GpH7-B3 variant E269_15Y/GpL16-k0 (antibody, human IgG1, kappa, heterodimerized antibody, mutation in the GpH7-B3 chain only; also called He Ab) heavy 1: not shown heavy 2: not shown light: DIVMTQSPLSLPVTPGEPASISCQASESLVHSNRNTYLHWYLQKPGQSPQLLIYKVSNRFSGVPDRFSGSGSGTDFTLKISRVEAEDVGVYYCSQNTHVPPTFGQGTKVEIERTVAAPSVFIFPPSDEQLKSGTASVVCLLNNFYPREAKVQWKVDNALQSGNSQESVTEQDSKDSTYSLSSTLTLSKADYEKHKVYACEVTHQGLSSPVTKSFNRGEC",1.29 ratio,57.6 % of GpH7-A5/GpH7-B3/GpL16-k0 (=100),44.7 % of GpH7-A5/GpH7-B3/GpL16-k0 (=100)
"GpH7-A5/GpH7-B3 variant E269_14T/GpL16-k0 (antibody, human IgG1, kappa, heterodimerized antibody, mutation in the GpH7-B3 chain only; also called He Ab) heavy 1: not shown heavy 2: not shown light: DIVMTQSPLSLPVTPGEPASISCQASESLVHSNRNTYLHWYLQKPGQSPQLLIYKVSNRFSGVPDRFSGSGSGTDFTLKISRVEAEDVGVYYCSQNTHVPPTFGQGTKVEIERTVAAPSVFIFPPSDEQLKSGTASVVCLLNNFYPREAKVQWKVDNALQSGNSQESVTEQDSKDSTYSLSSTLTLSKADYEKHKVYACEVTHQGLSSPVTKSFNRGEC",1.3 ratio,66 % of GpH7-A5/GpH7-B3/GpL16-k0 (=100),50.6 % of GpH7-A5/GpH7-B3/GpL16-k0 (=100)
"GpH7-A5/GpH7-B3 variant E269_12R/GpL16-k0 (antibody, human IgG1, kappa, heterodimerized antibody, mutation in the GpH7-B3 chain only; also called He Ab) heavy 1: not shown heavy 2: not shown light: DIVMTQSPLSLPVTPGEPASISCQASESLVHSNRNTYLHWYLQKPGQSPQLLIYKVSNRFSGVPDRFSGSGSGTDFTLKISRVEAEDVGVYYCSQNTHVPPTFGQGTKVEIERTVAAPSVFIFPPSDEQLKSGTASVVCLLNNFYPREAKVQWKVDNALQSGNSQESVTEQDSKDSTYSLSSTLTLSKADYEKHKVYACEVTHQGLSSPVTKSFNRGEC",1.39 ratio,35 % of GpH7-A5/GpH7-B3/GpL16-k0 (=100),25.2 % of GpH7-A5/GpH7-B3/GpL16-k0 (=100)

# The next lines start with the values.
IIaR/IIb (He_2aR/2b) [1],He/Con_2aR (IIaR binding) [2],He/Con_2b (IIb binding) [3],Binder
1.32 ratio,59.2 % of GpH7-A5/GpH7-B3/GpL16-k0 (=100),44.8 % of GpH7-A5/GpH7-B3/GpL16-k0 (=100),"GpH7-A5/GpH7-B3 variant E269_18N/GpL16-k0 (antibody, human IgG1, kappa, heterodimerized antibody, mutation in the GpH7-B3 chain only; also called He Ab) heavy 1: not shown heavy 2: not shown light: DIVMTQSPLSLPVTPGEPASISCQASESLVHSNRNTYLHWYLQKPGQSPQLLIYKVSNRFSGVPDRFSGSGSGTDFTLKISRVEAEDVGVYYCSQNTHVPPTFGQGTKVEIERTVAAPSVFIFPPSDEQLKSGTASVVCLLNNFYPREAKVQWKVDNALQSGNSQESVTEQDSKDSTYSLSSTLTLSKADYEKHKVYACEVTHQGLSSPVTKSFNRGEC"
1.31 ratio,57.8 % of GpH7-A5/GpH7-B3/GpL16-k0 (=100),44.3 % of GpH7-A5/GpH7-B3/GpL16-k0 (=100),"GpH7-A5/GpH7-B3 variant E269_19Q/GpL16-k0 (antibody, human IgG1, kappa, heterodimerized antibody, mutation in the GpH7-B3 chain only; also called He Ab) heavy 1: not shown heavy 2: not shown light: DIVMTQSPLSLPVTPGEPASISCQASESLVHSNRNTYLHWYLQKPGQSPQLLIYKVSNRFSGVPDRFSGSGSGTDFTLKISRVEAEDVGVYYCSQNTHVPPTFGQGTKVEIERTVAAPSVFIFPPSDEQLKSGTASVVCLLNNFYPREAKVQWKVDNALQSGNSQESVTEQDSKDSTYSLSSTLTLSKADYEKHKVYACEVTHQGLSSPVTKSFNRGEC"
1.23 ratio,81 % of GpH7-A5/GpH7-B3/GpL16-k0 (=100),65.7 % of GpH7-A5/GpH7-B3/GpL16-k0 (=100),"GpH7-A5/GpH7-B3 variant H268_06M/GpL16-k0 (antibody, human IgG1, kappa, heterodimerized antibody, mutation in the GpH7-B3 chain only; also called He Ab) heavy 1: not shown heavy 2: not shown light: DIVMTQSPLSLPVTPGEPASISCQASESLVHSNRNTYLHWYLQKPGQSPQLLIYKVSNRFSGVPDRFSGSGSGTDFTLKISRVEAEDVGVYYCSQNTHVPPTFGQGTKVEIERTVAAPSVFIFPPSDEQLKSGTASVVCLLNNFYPREAKVQWKVDNALQSGNSQESVTEQDSKDSTYSLSSTLTLSKADYEKHKVYACEVTHQGLSSPVTKSFNRGEC"
